Test results taken from patent US20260117259A1.
Where “and” joins values, the source holds several entries; their conditions need not be identical. Equal entries are not always repeated. Where two headings read alike, the source gives them in different places.

Columns and labels:
[1] = target: CRF250-SOSIP, soluble HIV-1 envelope glycoprotein trimer (SOSIP.v7 based on the CRF250 HIV-1 isolate) (HIV-1); experiment: flow cytometry of edited Jeko-1 cells, HDRT by AAV, double staining with CRF250 SOSIP-APC and CRF250 SOSIP-PE
[2] = target: CRF250-SOSIP, soluble HIV-1 envelope glycoprotein trimer (SOSIP.v7 based on the CRF250 HIV-1 isolate) (HIV-1); experiment: flow cytometry of Jeko-1 cells edited at the native heavy and kappa loci, double staining with CRF250 SOSIP-APC and CRF250 SOSIP-PE
[3] = target: CRF250-SOSIP, soluble HIV-1 envelope glycoprotein trimer (SOSIP.v7 based on the CRF250 HIV-1 isolate) (HIV-1); experiment: flow cytometry of edited Jeko-1 cells, HDRT as dsDNA, double staining with CRF250 SOSIP-APC and CRF250 SOSIP-PE
[4] = target: CRF250-SOSIP, soluble HIV-1 envelope glycoprotein trimer (SOSIP.v7 based on the CRF250 HIV-1 isolate) (HIV-1); experiment: flow cytometry of primary murine B cells edited at native loci, HDRT by AAV, double staining with CRF250 SOSIP-APC and CRF250 SOSIP-PE
[5] = target: CRF250-SOSIP, soluble HIV-1 envelope glycoprotein trimer (SOSIP.v7 based on the CRF250 HIV-1 isolate) (HIV-1); experiment: flow cytometry of primary murine B cells edited at native loci, HDRT as dsDNA, double staining with CRF250 SOSIP-APC and CRF250 SOSIP-PE
[6] = target: 16055-ConM-v8.1ds SOSIP trimer (HIV-1); experiment: flow cytometry, primary murine B cells edited in the HCDR3, labeled 16055-ConM-v8.1ds SOSIP against surface IgM
SOSIP = experiment: flow cytometry, APC-labeled SOSIP trimer against anti-IgM
[7] = target: CRF250-SOSIP, soluble HIV-1 envelope glycoprotein trimer (SOSIP.v7 based on the CRF250 HIV-1 isolate) (HIV-1); experiment: flow cytometry of control Jeko-1 cells (RNP without HDRT), double staining with CRF250 SOSIP-APC and CRF250 SOSIP-PE
[8] = target: CRF250-SOSIP, soluble HIV-1 envelope glycoprotein trimer (SOSIP.v7 based on the CRF250 HIV-1 isolate) (HIV-1); experiment: flow cytometry of control primary murine B cells (RNP without HDRT), upper row (IgH gRNAs), double staining with CRF250 SOSIP-APC and CRF250 SOSIP-PE
[9] = target: CRF250-SOSIP, soluble HIV-1 envelope glycoprotein trimer (SOSIP.v7 based on the CRF250 HIV-1 isolate) (HIV-1); experiment: flow cytometry of control primary murine B cells (RNP without HDRT), double staining with CRF250 SOSIP-APC and CRF250 SOSIP-FITC
[10] = target: CRF250-SOSIP, soluble HIV-1 envelope glycoprotein trimer (SOSIP.v7 based on the CRF250 HIV-1 isolate) (HIV-1); experiment: flow cytometry of control primary murine B cells (RNP without HDRT), lower rows (IgK gRNAs), double staining with CRF250 SOSIP-APC and CRF250 SOSIP-PE
[11] = target: CRF250-SOSIP, soluble HIV-1 envelope glycoprotein trimer (SOSIP.v7 based on the CRF250 HIV-1 isolate) (HIV-1); experiment: flow cytometry of control primary murine B cells (RNP without HDRT), double staining with CRF250 SOSIP-APC and CRF250 SOSIP-PE
[12] = target: CRF250-SOSIP, soluble HIV-1 envelope glycoprotein trimer (SOSIP.v7 based on the CRF250 HIV-1 isolate) (HIV-1); experiment: flow cytometry of control Jeko-1 cells (RNP without HDRT), double staining with CRF250 SOSIP-APC and CRF250 SOSIP-PE; remark: listed apart in the source
[13] = target: CRF250-SOSIP, soluble HIV-1 envelope glycoprotein trimer (SOSIP.v7 based on the CRF250 HIV-1 isolate) (HIV-1); experiment: flow cytometry of control primary murine B cells (RNP of the intron approach without HDRT), double staining with CRF250 SOSIP-APC and CRF250 SOSIP-PE
[14] = target: CRF250-SOSIP, soluble HIV-1 envelope glycoprotein trimer (SOSIP.v7 based on the CRF250 HIV-1 isolate) (HIV-1); experiment: flow cytometry of Jeko-1 cells edited at the native heavy-chain locus, double staining with CRF250 SOSIP-APC and CRF250 SOSIP-PE
[15] = target: CRF250-SOSIP, soluble HIV-1 envelope glycoprotein trimer (SOSIP.v7 based on the CRF250 HIV-1 isolate) (HIV-1); experiment: flow cytometry of Jeko-1 cells edited with gRNA targeting JH6, staining with CRF250 SOSIP-APC against anti-IgM
[16] = target: CRF250-SOSIP, soluble HIV-1 envelope glycoprotein trimer (SOSIP.v7 based on the CRF250 HIV-1 isolate) (HIV-1)
[17] = target: CRF250-SOSIP, soluble HIV-1 envelope glycoprotein trimer (SOSIP.v7 based on the CRF250 HIV-1 isolate) (HIV-1); remark: listed apart in the source

10-1074 heavy and light chain variable genes introduced at the native heavy and kappa loci of Jeko-1 (antibody)
% of cells in the SOSIP-positive gate [1]: 11.1% | % of cells in the SOSIP-positive gate [2]: 3.09% | % of cells in the SOSIP-positive gate [3]: 3.05%

10-1074 heavy and light chain variable genes introduced at the native heavy and kappa loci of primar (antibody)
% of cells in the SOSIP-positive gate [4]: 2.38% | % of cells in the SOSIP-positive gate [5]: 0.95%

B-cell receptors of primary murine B cells edited to express the HCDR3 of the predicted unmutated common ancestor of the VRC26 family (VRC26-UCA) (antibody)
% of cells in the SOSIP gate [6]: 2.26%

B-cell receptors of primary murine B cells edited to express the PG9 HCDR3 (antibody)
% of cells in the SOSIP gate [6]: 1.49%

B-cell receptors of primary murine B cells edited to express the PG16 HCDR3 (antibody)
% of cells in the SOSIP gate [6]: 1.02%

Negative control (antibody)
% of cells above the SOSIP gate line (SOSIP): 0.12%

No HDRT (antibody)
% of cells in the SOSIP-positive gate [7]: 0.12% | % of cells in the SOSIP-positive gate [8]: 0.44% | % of cells in the SOSIP-positive gate [9]: 0.17% | % of cells in the SOSIP-positive gate [10]: 0.45% | % of cells in the SOSIP-positive gate [11]: 0.34% | % of cells in the SOSIP-positive gate [12]: 0.24% | % of cells in the SOSIP-positive gate [13]: 0.58%

VRC26.25 heavy-chain variable gene introduced at the native heavy-chain locus of Jeko-1 cells (B-cell receptor on the cell surface) (antibody)
% of cells in the SOSIP-positive gate [1]: 37.8% | % of cells in the SOSIP-positive gate [3]: 7.12% | % of cells in the SOSIP-positive gate [14]: 7.12% | % of cells in the SOSIP-positive gate [15]: 5.24% | % of cells in the SOSIP-positive gate [16]: 4.43% and 1.12%

VRC26.25-y heavy and light chain variable genes introduced at the native loci of primary murine B cells (B-cell receptor) (antibody)
% of cells in the SOSIP-positive gate [4]: 7.55% | % of cells in the SOSIP-positive gate [5]: 1.78%

VRC26.25-y heavy chain alone introduced into primary murine B cells (B-cell receptor with endogenous murine light chains) (antibody)
% of cells in the SOSIP-positive gate [17]: 1.59% and 1.47% and 1%
